The assay addresses latent myostatin (human, UniProt O14793 24-266; O14793 267-375). Nature of the assay: cell-based or functional assay.

B1: Apitegromab (antibody, human IgG4 S228P, lambda, V domains shown)
VH: QVQLVESGGGVVQPGRSLRLSCAASGFTFSSYGMHWVRQAPGKGLEWVAVISYDGSNKYYADSVKGRFTISRDNSKNTLYLQMNSLRAEDTAVYYCARDLLVRFLEWSHYYGMDVWGQGTTVTVSS
VL: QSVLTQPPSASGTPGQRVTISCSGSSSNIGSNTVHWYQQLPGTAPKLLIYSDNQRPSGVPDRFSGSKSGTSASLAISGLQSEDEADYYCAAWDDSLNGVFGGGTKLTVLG
For the molecule B1, the “target engagement, as measured by latent myostatin (serum level after treatment vs baseline; 2 mg/kg and 20 mg/kg IV every 4 weeks)” value stood at 100 fold.

Source of the values: patent US20250326827A1 (SCHOLAR ROCK, published 2025).
